# Reference: patent publication US20220411514A1 (TRUEBINDING, published 2022)
# B1: 13G4.2F8 (antibody, V domains shown)
# VH: QVQLQQPGAELVKPGASVKLSCKASGYTFTSYWMHWVKQRPGQGLEWIGMIHPNSGSTDYNEKFKNKATLNVDKSSSTAYIQLSSLTSEDSAVYYCTRWGIYYYARDYWGQGTTLTVSS
# VL: DIVMTQSQKFMSTSVGERVSITCKASQNVGTNVAWYQQKAGQSLELLIYGASNRHTGVPDRFTGSGSGTDFTLTITNVQSEDMTNYFCEQYSNFPLTFGAGTKLELKR
# B2: TB001 (antibody, V domains shown)
# VH: QVQLVQSGSELKKPGASVKVSCKASGYTFTNYGMNWVRQAPGQGLKWMGWINTNTGEPTYVEEFTGRFVFSLETSVSTAYLQISSLKAEDTAVYFCAPYDNFFAYWGQGTTVTVSS
# VL: DIVLTQSPLSLPVTPGEPASISCRSSKSLLYKDGKTYLNWFLQKPGQSPQLLIYLMSTHASGVPDRFSGSGSGTDFTLKISRVEAEDVGVYYCQQLVDYPLTFGGGTKLEIKR
# B3: 3B11.2G2 (antibody, V domains shown)
# VH: QIQLVQSGPELKKPGETVKISCKTSGYKFKTYVMSWVKQAPGKALKWMGWINTYSGVPTYADDFKGRFAFSLETSASTAYLEIINLKNEDTATYFCARDGNYGDPMDYWGQGTSVTVSS
# VL: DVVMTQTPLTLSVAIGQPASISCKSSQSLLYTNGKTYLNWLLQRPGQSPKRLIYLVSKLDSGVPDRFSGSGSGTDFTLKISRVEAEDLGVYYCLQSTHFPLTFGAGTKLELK
# B4: F847C.21H6 (antibody, V domains shown)
# VH: QIQLVQSGPELKKPGETVKISCKASGYTFTIFGMNWVKQAPGKGLKWMGWVNTYTGEPTYADDFKGRFAFSLETSASTAYLQINNLKNEDTATYFCARGWFAYWGQGTLVTVSA
# VL: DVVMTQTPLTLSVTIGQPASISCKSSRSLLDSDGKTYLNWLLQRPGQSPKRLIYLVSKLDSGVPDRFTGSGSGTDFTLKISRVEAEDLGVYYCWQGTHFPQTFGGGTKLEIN
# B5: 19B5.2E6 (antibody, V domains shown)
# VH: QIQLVQSGPELKKPGETVKISCKASGYTFTTYAMSWVKQAPGKGLKWMGWINTYSGVPTYADDLKGRFAFSLETSASTAYLQINNLKNEDTATYFCARGPYAMDYWGQGTSVTVSS
# VL: DIQMTQTTSSLSASLGDRVTISCSASQGINNYLNWYQQKPDGTVKLLIYYASSLHSGVPSRFSGSGSGTDYSLTISNLEPEDIATYYCQQYSQVPYTFGSGTKLEIKR
# B6: 23H9.2E4 (antibody, V domains shown)
# VH: QIQLVQSGPELKKPGETVKISCKASGYTFTTYAMSWVKQAPGKGLKWMGWINTYSGVPTYADDLKGRFAFSLETSASTAYLQINNLKNEDTATYFCARGPYAMDYWGQGTSVTVSS
# VL: DIQMTQTTSSLSASLGDRVTISCSASQGINNYLNWYQQKPDGTVKLLIYYASSLHSGVPSRFSGSGSGTDYSLTISNLEPEDIATYYCQQYSQVPYTFGSGTKLEIK
# B7: Arg 228-Val 292 truncated form of GLUT4 (other)
# chain: RYLYIIQNLEGPARKSLKRLTGWADVSGVLAELKDEKRKLERERPLSLLQLLGSRTHRQPLIIAV
# B8: 24D12.2H9 (antibody, V domains shown)
# VH: QVQLKQSGPGLVQPSQSLSITCTVSGFSLTSYGVHWVRQAPGKGLEWLGVIWSGGSTDYNAAFMSRLSISKDNSKSQVFFKMNSLQADDTAIYYCAKSPDGYDVAWFGYWGQGTLVTVSA
# VL: DIVMTQSHKFMSTSVGDRVSITCKASQDVRTAVAWYQQKPGQSPKLLIYWASTRHTGVPDRFTGSGSGTDFTLTLSNVQSEDLADYFCQQYSSYPWTFGGGTKLEIKR
# B9: 12G5.D7 (antibody, V domains shown)
# VH: QVQLKQSGAELVRPGASVKLSCKASGYTFTDYYINWVKQRPGQGLEWIARIYPGTGNTDYNEKFKGRATLTAEKSSSTAYMQLSSLTSEDSAVYFCARFAYYYGSGGYFDYWGHGTTLTVSS
# VL: DILMTQSPSSMSVSLGDTVSITCHASQGINSNMGWLQQKPGKSFKGLIYHATNLEDGVPSRFSGSGSGADYSLTISSLESEDFADYYCVQYAQFPPTFGSGTKLEIK
# B10: 15G7.2A7 (antibody, V domains shown)
# VH: EVQLQQSGPELVKPGASVKISCKASGYTFTDYYMNWVKQSHGKSLEWIGDINPNNGGTNYNQKFKGKATLTVDKSSSTAYMELRSLTSEDSAVYYCTSGYGFPYWGQGTLVTVSA
# VL: DIQMNQSPSSLSASLGDTISITCRASQNINIWLSWYQQKPGNIPQLLIYKASNLHTGVPSRFSGSGSGTDFTLTISSLQPEDIATYYCLQGQSYPLTFGAGTKLVMKR
# B11: 9H2.2H10 (antibody, V domains shown)
# VH: QVQLQQPGAELVGPGSSVKLSCKASGYTFTNYWIHWVKQRPLQGLEWIGNIDPSDSETHYNQKFKDKATLTVDKSSSTAYMQLSSLTSEDSAVYYCARHGYYDYWGQGTTLTVSS
# VL: DIVMTQSHKFMSTSVGDRVSITCKASQDVSTAVAWYQQKPGQSPKLLIYWASTRHTGVPDRFTGSGSGTDYTLTISSVQAEDLALYYCQQHYTTPLTFGAGTKLELKR
# B12: TB006 (antibody, V domains shown)
# VH: QVQLVQSGAEVKKPGASVKVSCKASGYSFTNYYMHWVRQAPGQRLEWMGWIYPGSGNTNYNEKFQGRVTITADTSASTAYMELSSLRSEDTAVYYCSTAPGGFDVWGQGTTVTVSS
# VL: DIVMTQTPLSLSVTPGQPASISCKSSKSLLHSDGITYLYWYLQKPGQSPQLLIYRMSNLASGVPDRFSGSGSGTDFTLKISRVEAEDVGVYYCAQMLEFPLTFGQGTKLEIKR
# What was measured:
# human Galectin-3 (Gal3) [1] = target: T1, human Galectin-3 (Gal3) (human, UniProt P17931 2-250, limits assumed); assay: SPR Biacore T200, antibody captured, Gal3 analyte, 1:1 fit
# T1 construct: also called hGal3; hGAL3
# [2] = target: T2, Human Galectin-3 protein (Acro Biosystems, GA3-H5129) (human, UniProt P17931 2-250); assay: ELISA, INSR binding to coated Gal3 with 3 ug/mL antibody
# T2 construct: bought; also called Gal3-ECD-His; Gal3-His; not shown: linker-spaced 6-histidine tag
# [3] = target: T3, His-enterokinase cleavage site (EK)-cynoGal3 (TrueBinding in-house antigen) (cynomolgus, UniProt A0A7N9CYL1 6-247); assay: SPR Biacore T200, antibody captured, 1:1 fit
# T3 construct: also called His-EK-cynoGal3; cynomolgus Gal3; not shown: His tag and enterokinase cleavage site
# human Galectin-3 (Gal3) [4] = target: T1, human Galectin-3 (Gal3); assay: SPR Carterra LSA, antibody captured on Protein A/G, Gal3 analyte
# mouse Gal3 [5] = target: T4, mouse Gal3 (mouse, UniProt P16110 2-264, limits assumed); assay: as above
# [6] = target: T3, His-enterokinase cleavage site …; assay: SPR Biacore T200, protocol of Example 9
# human Galectin-3 (Gal3) [7] = target: T1, human Galectin-3 (Gal3); assay: SPR Carterra LSA, protocol of Example 9
# mouse Gal3 [8] = target: T4, mouse Gal3; assay: SPR Carterra LSA, protocol of Example 9
# His-EK-ratGal3 = target: T5, His-EK-ratGal3 (rat, UniProt P08699 2-262); assay: SPR Biacore T200, antibody captured by anti-human Fc, 1:1 fit
# T5 construct: not shown: His tag and enterokinase cleavage site
# T5 sequence (looked up): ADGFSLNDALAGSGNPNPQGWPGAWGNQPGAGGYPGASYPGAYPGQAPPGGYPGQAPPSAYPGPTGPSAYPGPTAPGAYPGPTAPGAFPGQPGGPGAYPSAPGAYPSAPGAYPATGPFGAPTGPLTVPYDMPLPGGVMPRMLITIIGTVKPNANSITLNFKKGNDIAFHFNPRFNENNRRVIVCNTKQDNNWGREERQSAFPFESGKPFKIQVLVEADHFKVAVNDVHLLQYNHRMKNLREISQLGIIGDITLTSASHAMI
# Peptide 5 of Gal3 = target: T6, Peptide 5 of Gal3 (human); assay: peptide ELISA, antibody as hIgG4(S228P) at 5 ug/mL
# T6 peptide: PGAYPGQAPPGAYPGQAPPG
# Peptide 6 of Gal3 = target: T7, Peptide 6 of Gal3 (human); assay: peptide ELISA, antibody as hIgG4(S228P) at 5 ug/mL
# T7 peptide: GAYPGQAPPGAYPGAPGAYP
# [9] = target: T2, Human Galectin-3 protein (Acro …); assay: SPR sandwich binning, Carterra LSA
# human Galectin-3 (Gal3) [10] = target: T1, human Galectin-3 (Gal3); assay: HDX-MS
# T3 sequence (A0A7N9CYL1 entry or part of it): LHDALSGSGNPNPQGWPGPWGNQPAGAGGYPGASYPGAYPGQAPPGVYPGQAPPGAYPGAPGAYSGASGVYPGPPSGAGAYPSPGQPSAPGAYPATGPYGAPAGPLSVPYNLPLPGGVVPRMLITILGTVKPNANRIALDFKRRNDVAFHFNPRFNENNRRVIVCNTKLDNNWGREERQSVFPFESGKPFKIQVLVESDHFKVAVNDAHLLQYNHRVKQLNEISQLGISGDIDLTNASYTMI
# T4 sequence (P16110 2-264 limits assumed): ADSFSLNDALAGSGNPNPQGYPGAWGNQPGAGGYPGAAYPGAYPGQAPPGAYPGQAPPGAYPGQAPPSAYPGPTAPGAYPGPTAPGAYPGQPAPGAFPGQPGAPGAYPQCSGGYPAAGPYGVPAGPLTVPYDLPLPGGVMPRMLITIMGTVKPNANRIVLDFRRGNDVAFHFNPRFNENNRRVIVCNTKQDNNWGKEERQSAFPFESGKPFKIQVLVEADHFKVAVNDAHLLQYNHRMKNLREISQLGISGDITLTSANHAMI
# T2 sequence (P17931 2-250): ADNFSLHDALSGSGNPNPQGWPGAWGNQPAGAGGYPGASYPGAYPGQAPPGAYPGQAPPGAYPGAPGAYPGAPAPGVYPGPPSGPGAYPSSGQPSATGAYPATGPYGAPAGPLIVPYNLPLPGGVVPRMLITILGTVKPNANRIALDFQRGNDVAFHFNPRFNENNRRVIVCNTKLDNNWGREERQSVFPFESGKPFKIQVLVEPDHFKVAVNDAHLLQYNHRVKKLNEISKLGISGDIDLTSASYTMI
# T1 sequence (P17931 2-250 limits assumed): as the sequence (P17931 2-250) above
binder,measurement,setting,value
B1,Kd,human Galectin-3 (Gal3) [1],18.4 nM
same,"inhibition of Gal3-INSR binding, %",[2],≤ 30%
B2,Kd,[3],8.9 nM
same,Kd,human Galectin-3 (Gal3) [4],3.6 nM
same,Kd,mouse Gal3 [5],2.3 nM
same,Kd,[6],34 nM
same,Kd,human Galectin-3 (Gal3) [7],9.7 nM
same,Kd,mouse Gal3 [8],4.2 nM
same,Kd,His-EK-ratGal3,14 nM
B3,"Gal3-INSR binding left, % of unblocked sample",[2],< 5%
B4,binding result,Peptide 5 of Gal3,binds
same,binding result,Peptide 6 of Gal3,binds
same,binding result,[9],binds
B5,"Gal3-INSR binding left, % of unblocked sample",[2],< 5%
B6,"Gal3-INSR binding left, % of unblocked sample",[2],< 5%
B7,binding result,human Galectin-3 (Gal3) [10],binds
B8,Kd,human Galectin-3 (Gal3) [1],4.13 nM
same,"inhibition of Gal3-INSR binding, %",[2],≤ 30%
B9,Kd,human Galectin-3 (Gal3) [1],1.9 nM
same,"inhibition of Gal3-INSR binding, %",[2],≤ 30%
B10,Kd,human Galectin-3 (Gal3) [1],27.8 nM
same,"inhibition of Gal3-INSR binding, %",[2],> 99%
B11,Kd,human Galectin-3 (Gal3) [1],2.53 nM
same,"inhibition of Gal3-INSR binding, %",[2],≤ 30%
B12,Kd,[3],5.1 nM
same,Kd,human Galectin-3 (Gal3) [4],8.9 nM
same,Kd,mouse Gal3 [5],40000 nM
same,Kd,[6],9.4 nM
same,Kd,human Galectin-3 (Gal3) [7],23 nM
